Experiments:
[1] = biological target: gp120 of HIV-1NL4-3 (on virus particles) (HIV-1 (NL4-3)); test: immunoblot with 2G12, band value, 3rd column: Day 12, - MoMo30 by the order of the lanes above
[2] = biological target: gp120 of HIV-1NL4-3 (on virus particles) (HIV-1 (NL4-3)); test: immunoblot with 2G12, band value, 1st column: Day 5, - MoMo30 by the order of the lanes above
[3] = biological target: gp120 of HIV-1NL4-3 (on virus particles) (HIV-1 (NL4-3)); test: immunoblot with 2G12, band value, 2nd column: Day 8, - MoMo30 by the order of the lanes above
[4] = biological target: gp120 of HIV-1NL4-3 (on virus particles) (HIV-1 (NL4-3)); test: immunoblot with 2G12, band value, 4th column: Day 5, + MoMo30 by the order of the lanes above
[5] = biological target: gp120 of HIV-1NL4-3 (on virus particles) (HIV-1 (NL4-3)); test: immunoblot with 2G12, band value, 6th column: Day 12, + MoMo30 by the order of the lanes above
[6] = biological target: gp120 of HIV-1NL4-3 (on virus particles) (HIV-1 (NL4-3)); test: immunoblot with 2G12, band value, 5th column: Day 8, + MoMo30 by the order of the lanes above

**Q.** “monoclonal antibody 2G12 (AIDS reagent program; cat #1476)” was tested. Which gp120 (row of the table under the blot) [1] did it give?
**A.** The gp120 (row of the table under the blot) was 100.

**Q.** And the gp120 (row of the table under the blot) [2]?
**A.** The gp120 (row of the table under the blot) was 65.

**Q.** And the gp120 (row of the table under the blot) [3]?
**A.** The gp120 (row of the table under the blot) was 51.

**Q.** And the gp120 (row of the table under the blot) [4]?
**A.** Its gp120 (row of the table under the blot) is 87.

**Q.** What about the gp120 (row of the table under the blot) [5] of the same substance?
**A.** Its gp120 (row of the table under the blot) is 16.

**Q.** And the gp120 (row of the table under the blot) [6]?
**A.** The gp120 (row of the table under the blot) was 51.
